{"source": "paper PMC3832594", "about": "“The Neuroplastin Adhesion Molecules Are Accessory Proteins That Chaperone the Monocarboxylate Transporter MCT2 to the Neuronal Cell Surface” (PLoS ONE, 2013)", "biological_target": "T1, MCT2 tagged at its N-terminus with CFP (rat, UniProt Q63344 1-489)", "T1 construct": "Monocarboxylate transporter MCT2; also called MCT2-ECFP (N-terminal); MCT2-CFP; source: COS-7, transiently transfected (Fugene 6), in live cells; not shown: ECFP, N-terminal, kept", "T1 sequence (looked up)": "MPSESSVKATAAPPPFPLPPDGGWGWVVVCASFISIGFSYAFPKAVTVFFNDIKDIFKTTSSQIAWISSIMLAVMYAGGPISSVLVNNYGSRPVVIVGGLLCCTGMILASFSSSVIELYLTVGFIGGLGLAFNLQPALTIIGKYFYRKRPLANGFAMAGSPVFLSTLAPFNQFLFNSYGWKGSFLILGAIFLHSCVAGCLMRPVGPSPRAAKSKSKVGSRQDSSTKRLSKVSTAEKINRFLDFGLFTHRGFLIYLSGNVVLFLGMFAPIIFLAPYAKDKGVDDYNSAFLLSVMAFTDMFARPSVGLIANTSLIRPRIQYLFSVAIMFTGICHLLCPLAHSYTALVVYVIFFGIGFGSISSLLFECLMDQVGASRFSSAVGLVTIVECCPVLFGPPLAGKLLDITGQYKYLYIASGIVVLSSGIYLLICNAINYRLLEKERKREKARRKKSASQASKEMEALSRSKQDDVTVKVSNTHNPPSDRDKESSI", "assay": "FRET or BRET; live COS-7 cells co-transfected with MCT2-ECFP (N-terminal) and np55- or np65-EYFP (C-terminal), 48 h after transfection; 37°C, imaging buffer pH 7.4; ratio of emission at 480 nm to 530 nm on excitation at 430 nm (MCT2-CFP alone 1.33±0.016)", "settings": "partners not purified", "data": [{"binder": "np65 C-terminally labelled with YFP (natural protein, Neuroplastin np65, the form with 3 Ig domains; also called np65-EYFP (C-terminal); np65-YFP; source: COS-7, transiently transfected (Fugene 6), in live cells; not shown: EYFP, C-terminal, kept) not shown", "values": [{"measurement": "480:530 nm fluorescence emission ratio (FRET)", "result": 0.792}]}]}
